The record followed here is the supplement of paper PMC7877785.

The data set in a line: self-splicing fitness, log relative to wild type (ln ratio); higher = more splicing; Tetrahymena group I intron in knt gene, E. coli kanamycin selection, DiMSum; sequences stand for … in CUCUCU…GGAGGGAAAAGUUAUCAGGCAUGCACCUGGUAGCUAGUCUUUAAACCAAUAGAUUGCAUCGGUUUAAAAGGCAAGACCGUCAAAUUGCGGGAAAGGGGUCAACAGCCGUUCAGUACCAAGUCUCAGGGGAAACUUUGAGAUGGCCUUGCAAAGGGUAUGGUAAUAAGCUGACGGACAUGGUCCUAACCACGCAGCCAAGUCCUAAGUCAACAGAUCUUCUGUUGAUAUGGAUGCAGUUCACAGACUAAAUGUCGGUCGGGGAAGAUGUAUUCUUCUCAUAAGAUAUAGUCGGACCUCUCCUUAAUGGGAGCUAGCGGAUGAAGUGAUGCAACACUGGAGCCGCUGGGAACUAAUUUGUAUGCGAAAGUAUAUUGAUUAGUUUUGGAGUACUCGUGGUCG
In outline:
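Six replicate transformations of E. coli BL21(DE3) with a pET-22b(+) library were grown overnight at 37°C or 30°C. The library randomised all eight P1ex-region intron nucleotides, the intron lying in the knt kanamycin-resistance gene, and plates were LB agar with or without 25 μg/mL kanamycin plus 100 μg/mL carbenicillin, 50 μM IPTG and 0.2% rhamnose. Pooled colonies were amplicon-sequenced on an Illumina HiSeq 2500, and fitness is the DiMSum error-weighted combination of wild-type-normalised replicate fold changes, kanamycin versus none.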

± gives the uncertainty stated by the source.

UCGUAGCAAUAUUACGCUCC: the “self-splicing fitness (ln)” value (30 °C) is -2.47 ± 0.25. In the case of ACGAAGCAAUAUUACGCCCA, the “self-splicing fitness (ln)” value was -1.11 ± 0.17 (30 °C) and -0.748 ± 0.26 (37 °C). The like results for UGAAAGCAAUAUUACGUCGG were, in that order, -1.12 ± 0.065 and -0.446 ± 0.082.

Consider GGGGAGCAAUAUUACGCCUU, for which the “self-splicing fitness (ln)” value (37 °C) is -0.939 ± 0.35. As to AGGAAGCAAUAUUACGCCAA, the “self-splicing fitness (ln)” value by setting is: (30 °C) -1.65 ± 0.35; (37 °C) -1.5 ± 0.31. Regarding GUGAAGCAAUAUUACGGGAA, the “self-splicing fitness (ln)” value was -2.11 ± 0.12 (30 °C) and -0.793 ± 0.11 (37 °C).

For the sequence UAAUAGCAAUAUUACGUCAU, the “self-splicing fitness (ln)” value reads like this: (30 °C) -4 ± 0.28; (37 °C) -2.52 ± 0.22. Taken in the same sequence, the figures for UGGUAGCAAUAUUACGUCAA were -2.31 ± 0.19 and -0.773 ± 0.15.

In the case of AUGUAGCAAUAUUACGAGUC, the “self-splicing fitness (ln)” value runs as follows: (30 °C) -2.95 ± 0.23; (37 °C) -3.28 ± 0.4.

For the sequence CUCCAGCAAUAUUACGCCAU, the “self-splicing fitness (ln)” value reads like this: (30 °C) -3.28 ± 0.31; (37 °C) -2.34 ± 0.25. The like results for UCAGAGCAAUAUUACGGGGU were, in that order, -3.35 ± 0.23 and -2.88 ± 0.27. The like results for UCCCAGCAAUAUUACGAGCC were, in that order, -2.16 ± 0.28 and -1.96 ± 0.31.

For UAUCAGCAAUAUUACGGGCG, the “self-splicing fitness (ln)” value is, setting by setting: (30 °C) 0.0109 ± 0.065; (37 °C) 0.684 ± 0.088. Taken in the same sequence, the figures for AGGAAGCAAUAUUACGUGCC were -1.72 ± 0.22 and -0.175 ± 0.23. Taken in the same sequence, the figures for UUGUAGCAAUAUUACGUAGC were -3.44 ± 0.31 and -2.87 ± 0.25. The like results for ACUUAGCAAUAUUACGGAUU were, in that order, -1.18 ± 0.12 and -0.862 ± 0.14.

Regarding CUAAAGCAAUAUUACGACGU, the “self-splicing fitness (ln)” value runs as follows: (30 °C) -3.33 ± 0.28; (37 °C) -0.435 ± 0.19. The like results for CGUCAGCAAUAUUACGGGCU were, in that order, -1.31 ± 0.078 and -0.668 ± 0.082.

Take CCGAAGCAAUAUUACGCAUA: the “self-splicing fitness (ln)” value by setting is: (30 °C) -2.88 ± 0.27; (37 °C) -3.64 ± 0.31. Consider AGUAAGCAAUAUUACGGUCU, for which the “self-splicing fitness (ln)” value was -0.432 ± 0.093 (30 °C) and -0.488 ± 0.11 (37 °C). Turning to AAUGAGCAAUAUUACGGGAU, the “self-splicing fitness (ln)” value (30 °C) was -4.32 ± 0.28 and the “self-splicing fitness (ln)” value (37 °C) is -3.09 ± 0.29. With GUCAAGCAAUAUUACGUUGA, the “self-splicing fitness (ln)” value (30 °C) is -2.64 ± 0.21 and the “self-splicing fitness (ln)” value (37 °C) is -3.51 ± 0.4.

For the sequence AAACAGCAAUAUUACGAAAA, the “self-splicing fitness (ln)” value reads like this: (30 °C) -2.95 ± 0.15; (37 °C) -1.8 ± 0.14.

On to ACAAAGCAAUAUUACGUCUU, for which the “self-splicing fitness (ln)” value reads like this: (30 °C) -0.827 ± 0.051; (37 °C) -0.41 ± 0.064.

For UGGGAGCAAUAUUACGAGCA, the “self-splicing fitness (ln)” value was -1.28 ± 0.18 (30 °C) and -0.71 ± 0.18 (37 °C). Taken in the same sequence, the figures for GAAAAGCAAUAUUACGCGCC were -2.06 ± 0.16 and -1.25 ± 0.17. Regarding GAGAAGCAAUAUUACGUGCG, the “self-splicing fitness (ln)” value (30 °C) is -1.71 ± 0.093 and the “self-splicing fitness (ln)” value (37 °C) was -1.02 ± 0.1.

Take AGACAGCAAUAUUACGAACG: the “self-splicing fitness (ln)” value is, setting by setting: (30 °C) -1.29 ± 0.1; (37 °C) -0.106 ± 0.12. The like results for CGUUAGCAAUAUUACGCAGA were, in that order, -3.21 ± 0.41 and -2.31 ± 0.23. The like results for GCAGAGCAAUAUUACGAUGG were, in that order, -1.98 ± 0.098 and -1.65 ± 0.12. On to UGGCAGCAAUAUUACGGCAG, for which the “self-splicing fitness (ln)” value by setting is: (30 °C) -0.148 ± 0.12; (37 °C) 0.163 ± 0.14. The like results for GCGCAGCAAUAUUACGACCA were, in that order, -1.56 ± 0.25 and -0.19 ± 0.23. Taken in the same sequence, the figures for UGGUAGCAAUAUUACGGCGU were -1.44 ± 0.12 and -0.737 ± 0.12. Taken in the same sequence, the figures for GGUGAGCAAUAUUACGAGUG were -2.19 ± 0.41 and -2.55 ± 0.27. On to ACAUAGCAAUAUUACGCCAC, for which the “self-splicing fitness (ln)” value runs as follows: (30 °C) -3.57 ± 0.27; (37 °C) -0.959 ± 0.17. In the case of UCCCAGCAAUAUUACGUACC, the “self-splicing fitness (ln)” value (37 °C) turned out to be 0.327 ± 0.33. In the case of AAACAGCAAUAUUACGAGGA, the “self-splicing fitness (ln)” value (30 °C) was -4 ± 0.26 and the “self-splicing fitness (ln)” value (37 °C) is -1.97 ± 0.13. Taken in the same sequence, the figures for UAGAAGCAAUAUUACGGCGA were 0.119 ± 0.22 and -0.385 ± 0.24.
